In publication PMC11922929, “Functional recoding of Chlamydomonas reinhardtii thioredoxin type-h into photosynthetic type-f by switching selectivity determinants” (Frontiers in Plant Science, 2025):
Values belong to the molecule of their own block, whether it stands above or below them.

Assays:
[1] = biological target: Chlamydomonas reinhardtii fructose-1,6-bisphosphatase (CrFBPase) (Chlamydomonas reinhardtii)
[2] = biological target: T1, CrFBPase (Chlamydomonas reinhardtii, UniProt A8IKQ0); assay: coupled spectrophotometric assay of FBP hydrolysis (NADP+ reduction at […] nm); assay type: biochemical; conditions: 0.6 mM FBP, 10 mM MgCl2, 30 mM Tris pH 7.9, 20 °C; FBPase pre-incubated with 1 mM DTT, with or without 50 µM thioredoxin
T1 construct: gene CHLRE_12g510650v5; recombinant, N-terminal poly-histidine tag, pET plasmid, E. coli BL21(DE3), Ni-NTA purified
T1 sequence (A8IKQ0 29-415): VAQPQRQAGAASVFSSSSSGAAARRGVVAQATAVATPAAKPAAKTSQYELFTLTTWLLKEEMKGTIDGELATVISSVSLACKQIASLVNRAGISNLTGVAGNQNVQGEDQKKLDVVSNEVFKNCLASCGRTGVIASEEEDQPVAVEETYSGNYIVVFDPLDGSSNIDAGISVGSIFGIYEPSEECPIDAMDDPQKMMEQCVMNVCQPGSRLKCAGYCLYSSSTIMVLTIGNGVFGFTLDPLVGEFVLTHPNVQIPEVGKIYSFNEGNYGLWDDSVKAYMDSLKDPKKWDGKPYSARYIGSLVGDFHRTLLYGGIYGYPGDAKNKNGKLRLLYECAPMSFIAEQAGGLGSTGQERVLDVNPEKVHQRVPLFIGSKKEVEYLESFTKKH

Molecule: Chlamydomonas reinhardtii thioredoxin f2 (CrTRXf2) (enzyme)
FBPase activity (coupled spectrophotometric assay, NADP+ reduction at 340 nm, initial velocity) after 5 min pre-incubation with 1 mM DTT and 50 µM TRXf2, 20°C, n=4 [1]: 106 ΔAbs/min
fold increase of FBPase activity after pre-incubation with 1 mM DTT and 50 µM TRXf2 [1]: 6 fold

Molecule: O=P(O)(O)OC[C@H]1OC(O)(COP(=O)(O)O)[C@@H](O)[C@@H]1O (stereo partly shown) [FBP]
coupled spectrophotometric assay of FBP hydrolysis (NADP+ reduction at 340 nm) [2]: The activity of FBPase was determined in the direction of FBP hydrolysis

Continued, values first:

FBPase activity (coupled spectrophotometric assay, NADP+ reduction at 340 nm, initial velocity) after 5 min pre-incubation with 1 mM DTT and 50 µM TRXχ1, 20°C, n=4 [1]: 172 ΔAbs/min
fold increase of FBPase activity after pre-incubation with 1 mM DTT and 50 µM TRXχ1 [1]: 9.8 fold
Molecule: TRXχ1 (chimera 1; TRXh1-K49,K69,K70,K78,K99) (from UniProt P80028 1-113) (enzyme)

FBPase activity (coupled spectrophotometric assay, NADP+ reduction at 340 nm, initial velocity) after 5 min pre-incubation with 1 mM DTT and 50 µM TRXh1, 20°C, n=4 [1]: 59 ΔAbs/min
fold increase of FBPase activity after pre-incubation with 1 mM DTT and 50 µM TRXh1 [1]: 3.4 fold
B1: Chlamydomonas reinhardtii thioredoxin h1 (CrTRXh1) (enzyme)
chain: MGGSVIVIDSKAAWDAQLAKGKEEHKPIVVDFTATWCGPCKMIAPLFETLSNDYAGKVIFLKVDVDAVAAVAEAAGITAMPTFHVYKDGVKADDLVGASQDKLKALVAKHAAA
